The Kd is the constant that tells how readily two partners part at equilibrium.

Assay [1] has as its target HLA-B*15:01. In words: IEDB peptide-MHC binding, purified MHC/competitive/radioactivity; filed as Kd, often an IC50 or EC50 that approximates it; ≥ and ≤ were set here for values at or beyond the usual limits of such assays.
Assay [2] deals with HLA-B*08:01. The description is as above. The note with it: source organism: Vaccinia virus WR.
For assay [3], the target named is HLA-A*30:02. Described as above.
The target in assay [4] is HLA-A*01:01. The assay is described as above.
Assay [5] deals with HLA-B*53:01. The description is as above. The note with it: source organism: Dengue virus 2 Jamaica/1409/1983.
The target in assay [6] is HLA-A*26:01. The description is as above.
The target of assay [7] is HLA-A*32:01. The description is as above.
For assay [8], the target named is HLA-A*24:03. The assay is described as follows: IEDB peptide-MHC binding, purified MHC/direct/fluorescence; filed as Kd, often an IC50 or EC50 that approximates it; ≥ and ≤ were set here for values at or beyond the usual limits of such assays.
Assay [9] concerns the target HLA-A*30:01. In words: IEDB peptide-MHC binding, purified MHC/competitive/radioactivity; filed as Kd, often an IC50 or EC50 that approximates it; ≥ and ≤ were set here for values at or beyond the usual limits of such assays.
Assay [10] addresses HLA-B*07:02. The description is as above.
In assay [11] the target is HLA-A*23:01. Described as above.
For assay [12], the target named is HLA-A*24:02. The assay is described as above.
The target in assay [13] is HLA-A*29:02. The assay is described as above.
Assay [14] deals with HLA-A*02:02. Described as above. The note with it: source organism: Vaccinia virus WR.
Assay [15] addresses HLA-A*02:03. Described as above. To be noted: source organism: Vaccinia virus WR.
Assay [16] addresses HLA-A*02:06. The description is as above. The note with it: source organism: Vaccinia virus WR.
In assay [17] the target is HLA-B*51:01. The assay is described as above.
The target in assay [18] is HLA-B*46:01. In words: IEDB peptide-MHC binding, purified MHC/competitive/fluorescence; filed as Kd, often an IC50 or EC50 that approximates it; ≥ and ≤ were set here for values at or beyond the usual limits of such assays. To be noted: source organism: Haemophilus influenzae R3021.
In assay [19] the target is HLA-B*15:01. In words: IEDB peptide-MHC binding, purified MHC/direct/fluorescence; filed as Kd, often an IC50 or EC50 that approximates it; ≥ and ≤ were set here for values at or beyond the usual limits of such assays. To be noted: source organism: Haemophilus influenzae.
For assay [20], the target named is HLA-B*40:01. Described as above. To be noted: source organism: Haemophilus influenzae.
The target of assay [21] is HLA-A*69:01. The description is as above. To be noted: source organism: Haemophilus influenzae.
Setting [22] is: source organism: Vaccinia virus WR.
Where [23] appears, read: source organism: Dengue virus 2 Jamaica/1409/1983.
[24] abbreviates: source organism: Mammarenavirus lassaense.
[25] abbreviates: source organism: Dengue virus 1 Brazil/97-11/1997.
The mark [26] stands for this setting: source organism: Mammarenavirus guanaritoense.
[27] abbreviates: source organism: SARS coronavirus Tor2.
Setting [28] is: source organism: Mammarenavirus machupoense.
[29] abbreviates: source organism: Mammarenavirus choriomeningitidis.
Where [30] appears, read: source organism: Dengue virus 4 Philippines/H241/1956.

Regarding FLYSFFLCI, the Kd in assay [1] (setting [22]) came to 1170 nM; in assay [2] it was 5810 nM.
As to FTIMAAILAY, the Kd was 2170 nM in assay [3] (setting [23]); 973 nM in assay [4] (setting [23]); 2.18 nM in assay [1] (setting [23]); 3450 nM in assay [5]; 55 nM in assay [6] (setting [23]).
As to SLCKLNNVF, the Kd turned out to be 927 nM in [7] (setting [22]) and 16 nM in [1] (setting [22]).
As to GYCLTRWML, in [8] (setting [24]), the Kd came to 39.5 nM.
With LLFVCISYY, in assay [1] (setting [22]), the Kd was ≥ 78100 nM.
As to RIRNKFMFI, the Kd in assay [9] (setting [22]) was found to be 0.0693 nM; in assay [1] (setting [22]), 766 nM; in [2], 1.58 nM.
Turning to MATFKMRPM, in assay [10] (setting [25]), the Kd came to 158 nM.
Turning to AMVLSIVSLF, the Kd in assay [11] (setting [25]) amounted to 15.1 nM; in [1] (setting [25]), 4.66 nM; in assay [12] (setting [25]), 580 nM.
With SSSPTILDNY, the Kd in assay [13] (setting [26]) was 99 nM; in assay [3] (setting [26]) it was 42.5 nM; in assay [4] (setting [26]) it was 22.6 nM; in [9] (setting [26]) it was ≥ 21000 nM; in assay [7] (setting [26]), ≥ 69900 nM; in assay [6] (setting [26]) it was 17800 nM.
Take FFTYLCGFI: the Kd was 822 nM in assay [13] (setting [27]); ≥ 78900 nM in [3] (setting [27]); ≥ 43100 nM in assay [4] (setting [27]); 13700 nM in assay [11] (setting [27]); ≥ 77900 nM in assay [6] (setting [27]); 18800 nM in assay [12] (setting [27]).
Consider PYENLLYKL, for which the Kd worked out at 785 nM in assay [8] (source organism: Mammarenavirus paranaense), 2340 nM in assay [13] (setting [28]), 81.5 nM in [11] (setting [28]) and 521 nM in [12] (setting [28]).
Take ESDGKPQKV: the Kd in assay [13] (setting [24]) was ≥ 78900 nM; in [3] (setting [24]) it was ≥ 76900 nM; in assay [4] (setting [24]), 188 nM; in [11] (setting [24]), ≥ 77700 nM; in assay [6] (setting [24]), ≥ 77900 nM; in assay [12] (setting [24]), ≥ 77500 nM.
In the case of DTSNTGRAEL, the Kd is ≥ 71400 nM in [13] (setting [29]); 7180 nM in [3] (setting [29]); ≥ 50200 nM in assay [4] (setting [29]); ≥ 24500 nM in [9] (setting [29]); ≥ 69900 nM in [7] (setting [29]); 16000 nM in assay [6] (setting [29]).
Consider FIAKHFLEL, for which the Kd in assay [1] (setting [22]) is 6500 nM; in assay [2] it was 1.3 nM.
With LVSLLGSAL, the Kd in assay [10] (setting [30]) stood at 44.3 nM.
Regarding GINKRSTPF, the dissociation constant (Kd) in [1] (source organism: Vaccinia virus Copenhagen) is 0.723 nM.
Take NPNMTDKTPV: the Kd in assay [10] (setting [30]) is 118 nM.
Regarding EDAQPGLLSY, the Kd is 8210 nM in assay [13] (setting [26]); 17600 nM in assay [3] (setting [26]); ≥ 70400 nM in assay [4] (setting [26]); ≥ 70000 nM in assay [11] (setting [26]); ≥ 25800 nM in [6] (setting [26]); ≥ 70300 nM in [12] (setting [26]).
In the case of MWSFNPETNI, the Kd in [13] (setting [27]) is 13300 nM; in assay [3] (setting [27]) it was ≥ 24700 nM; in assay [4] (setting [27]) it was ≥ 70400 nM; in assay [11] (setting [27]), 407 nM; in assay [6] (setting [27]), ≥ 39100 nM; in assay [12] (setting [27]), 551 nM.
Take FFVYENAFL: the Kd in assay [13] (setting [27]) was ≥ 107000 nM; in assay [3] (setting [27]), ≥ 96800 nM; in assay [4] (setting [27]), ≥ 78100 nM; in [11] (setting [27]), 6780 nM; in assay [6] (setting [27]), ≥ 32700 nM; in [12] (setting [27]) it was 9050 nM.
As for PTMEIEDQEY, the Kd is 11300 nM in assay [13] (setting [26]); 8840 nM in [3] (setting [26]); 17.2 nM in assay [4] (setting [26]); ≥ 70400 nM in assay [9] (setting [26]); ≥ 49800 nM in assay [7] (setting [26]); 1140 nM in assay [6] (setting [26]).
Turning to AFIDTIKSL, the Kd in assay [13] (setting [27]) was 2950 nM; in [3] (setting [27]) it was 13600 nM; in assay [4] (setting [27]) it was ≥ 78100 nM; in assay [11] (setting [27]), 5010 nM; in assay [6] (setting [27]), ≥ 34200 nM; in assay [12] (setting [27]), 10200 nM.
As to AYSNRNRFL, the Kd in assay [13] (setting [27]) is 6640 nM; in [3] (setting [27]), ≥ 54700 nM; in assay [4] (setting [27]), ≥ 78100 nM; in [11] (setting [27]), 658 nM; in [6] (setting [27]), ≥ 77900 nM; in assay [12] (setting [27]), 92.2 nM.
KAFKKFPSG: the Kd in assay [9] (setting [22]) stood at 247 nM; in assay [1] (setting [22]), 2990 nM.
For LLSPVRVPNY, the Kd turned out to be 306 nM in [3] (setting [23]), 15100 nM in [4] (setting [23]) and 2.99 nM in [1] (setting [23]).
In the case of GYQHKTLAI, in assay [8] (source organism: Vibrio vulnificus), the Kd came out at 6.5 nM.
As to FSAVGNICY, the Kd in assay [13] (setting [27]) is 7.97 nM; in assay [3] (setting [27]) it was 28.5 nM; in [4] (setting [27]), 0.34 nM; in assay [11] (setting [27]), ≥ 77800 nM; in [6] (setting [27]) it was 409 nM; in [12] (setting [27]), ≥ 51600 nM.
Regarding GSIIQFPNTY, the Kd in assay [13] (setting [27]) was 462 nM; in [3] (setting [27]), 545 nM; in [4] (setting [27]) it was 1050 nM; in assay [11] (setting [27]), ≥ 70000 nM; in [6] (setting [27]) it was 1880 nM; in [12] (setting [27]), ≥ 70300 nM.
In the case of SVIFYFISI, the Kd is 335 nM in assay [1] (setting [22]), 155 nM in [14], 75 nM in assay [15] and 0.169 nM in [16].
With QLNQLSKSEF, the Kd in assay [1] (setting [25]) was 73.1 nM.
As to RPVKEKEENL, the Kd in assay [10] (setting [25]) was found to be 761 nM.
Take LIKVLVEHG: the Kd in [1] (setting [22]) stood at 621 nM.
For KAAKRISHG, in [1] (setting [22]), the Kd came out at 7690 nM.
For SPAAAQKAT, the Kd in assay [10] (setting [30]) turned out to be 14.3 nM.
In the case of SPAAAQKATL, the Kd in assay [10] (setting [30]) stood at 3.95 nM.
For YICILINHG, the Kd in [1] (setting [22]) was 813 nM.
On the same count and under the same terms, the same measure for ASITAFKSM: 25 nM.
As for QPHWIAASII, the figures for the Kd in assay [10] (setting [23]) and in assay [17] (setting [23]) were 47.5 nM and 468 nM, respectively.
In the case of RYWYLNHTV, the Kd in [13] (setting [24]) was ≥ 38600 nM; in [3] (setting [24]), 0.603 nM; in assay [4] (setting [24]) it was ≥ 28200 nM; in assay [11] (setting [24]) it was 15.3 nM; in [6] (setting [24]) it was ≥ 77900 nM; in [12] (setting [24]) it was 76.8 nM.
For the sequence EGFMRKQKY, the dissociation constant (Kd) in assay [13] (setting [29]) was ≥ 78900 nM; in [3] (setting [29]) it was ≥ 53500 nM; in assay [4] (setting [29]), ≥ 49600 nM; in assay [11] (setting [29]) it was ≥ 56100 nM; in [6] (setting [29]) it was ≥ 77900 nM; in assay [12] (setting [29]), ≥ 77500 nM.
Regarding SPIINRKGKV, the Kd in [10] (setting [30]) is 248 nM; in assay [17] (setting [30]), ≥ 69600 nM.
As for GPMVAGGLLL, the figures for the Kd in assay [10] (setting [30]) and in assay [17] (setting [30]) were 36.3 nM and ≥ 69600 nM, respectively.
Consider HTSSMRGVY, for which the Kd in assay [13] (setting [27]) was 8.21 nM; in [3] (setting [27]), 0.131 nM; in [4] (setting [27]) it was 85.2 nM; in assay [11] (setting [27]), ≥ 77800 nM; in assay [6] (setting [27]), 4.78 nM; in assay [12] (setting [27]) it was ≥ 77600 nM.
For the sequence KLNQLSRKEF, the Kd in [1] (source organism: Dengue virus 3 Martinique/1243/1999) is 70.6 nM.
For EQFPNATAF, the Kd amounted to 2370 nM in [18], 42.3 nM in assay [19], 2970 nM in assay [20] and 9840 nM in assay [21].
KNNNEFAFF: the Kd in [1] (setting [22]) turned out to be 1330 nM.
Regarding LMRRGDLPVW, the equilibrium dissociation constant (Kd) in [1] (setting [23]) is 159 nM.
KQEHETSWHY: the figures for the Kd in assay [3] (setting [23]) and in assay [1] (setting [23]) were ≥ 69700 nM and 125 nM, respectively.
As for SPNPTIEAGR, the Kd in [10] (setting [23]) was found to be 1400 nM.

The values are drawn from the Immune Epitope Database (IEDB).
